Test results as given in US20250296995A1.

Biological target: recombinant Plasmodium falciparum circumsporozoite protein (CSP) (Plasmodium falciparum) (UniProt P19597)
Assay: cell-based or functional assay

recombinant Plasmodium falciparum circumsporozoite protein (CSP) (Plasmodium falciparum), sequence (P19597 21-375 limits assumed): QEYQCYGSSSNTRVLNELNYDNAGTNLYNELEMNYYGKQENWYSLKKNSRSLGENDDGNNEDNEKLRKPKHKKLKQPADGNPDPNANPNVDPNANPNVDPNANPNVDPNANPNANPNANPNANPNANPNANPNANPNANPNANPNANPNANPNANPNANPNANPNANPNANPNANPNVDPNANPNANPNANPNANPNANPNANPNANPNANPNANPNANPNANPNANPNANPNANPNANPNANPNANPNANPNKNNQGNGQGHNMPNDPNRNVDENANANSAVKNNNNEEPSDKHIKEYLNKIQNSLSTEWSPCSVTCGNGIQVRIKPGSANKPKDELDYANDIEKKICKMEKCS

| Geo Mean EC50 (ug/ml), ADNKA, Donor 1 [µg/mL] | Geo Mean EC50 (ug/ml), ADNKA, Donor 2 [µg/mL] | Geo Mean EC50 (ug/ml), ADNKA, Donor 3 [µg/mL] | Geo Mean EC50 (ug/ml), ADNKA, Donor 4 [µg/mL] | GeoMean EC50 (M), ADCP [M] | GeoMean EC50 (M), ADCP repeat, n=4 [M] | Mean EC50 (pM), ADCP [pM] | Mean EC50 (pM), ADCP repeat, n=4 [pM] | Mean pEC50, ADCP | Mean pEC50, ADCP repeat, n=4 | Binder |
| --- | --- | --- | --- | --- | --- | --- | --- | --- | --- | --- |
| 0.0035 | 0.0037 | 0.0802 | 0.0214 | 1.18e-11 | 6.55e-12 | 11.8 | 6.6 | 10.9 | 11.2 | AB-000338 ALE LS (antibody, human IgG1, kappa, V domains shown) VH: QVQLVESGGGVVQPGRSLRLSCAASGFSFSTYGMHWIRQVPGKGLEWVAIIWHDGSKEFYADSVKGRFTISRDNSKKKLYLQMNSLRAEDTAIYYCVKDDFDSSGHSYFHYWGQGTLVTVSS VL: GVVMTQSPLSLPVTLGQPASISCRSSQSLVHSDGNTYVHWFQQRPGQSPRRLIYKVSNRDSGVPDRFSGSGSGTDFTLKISRVEAEDVGVYYCMQGTQWWTFGQGTKVEIKR |
| 0.0087 | 0.0057 | 0.0272 | 0.0067 | 7.21e-12 |  | 7.2 |  | 11.1 |  | AB-000338 DEA FV LS (antibody, V domains shown) VH: QVQLVESGGGVVQPGRSLRLSCAASGFSFSTYGMHWIRQVPGKGLEWVAIIWHDGSKEFYADSVKGRFTISRDNSKKKLYLQMNSLRAEDTAIYYCVKDDFDSSGHSYFHYWGQGTLVTVSS VL: GVVMTQSPLSLPVTLGQPASISCRSSQSLVHSDGNTYVHWFQQRPGQSPRRLIYKVSNRDSGVPDRFSGSGSGTDFTLKISRVEAEDVGVYYCMQGTQWWTFGQGTKVEIK |
| 0.0301 | 0.238 | 0.171 | 0.0887 | 9.19e-12 | 1.08e-11 | 9.2 | 10.8 | 11 | 11 | AB-000338 LS (antibody, V domains shown) VH: QVQLVESGGGVVQPGRSLRLSCAASGFSFSTYGMHWIRQVPGKGLEWVAIIWHDGSKEFYADSVKGRFTISRDNSKKKLYLQMNSLRAEDTAIYYCVKDDFDSSGHSYFHYWGQGTLVTVSS VL: GVVMTQSPLSLPVTLGQPASISCRSSQSLVHSDGNTYVHWFQQRPGQSPRRLIYKVSNRDSGVPDRFSGSGSGTDFTLKISRVEAEDVGVYYCMQGTQWWTFGQGTKVEIK |
